For two substances, oligomerization rate and stoichiometry N results are on record in article doi:10.1101/2021.07.12.452133.

For test [1], the target named is MBP-tagged delVirB4_CTn4 (NH2-terminally truncated VirB4-like ATPase of the CTn4 locus, C. difficile 630) (Clostridioides difficile strain 630). Nature of the test: SEC. (In general: Size exclusion chromatography separates by hydrodynamic size, large species first.)
Test [2] has the same target. Nature of the test: negative-stain transmission electron microscopy.
The target of test [3] is MBP-tagged delVirD4_CTn4 (NH2-terminally truncated VirD4-like ATPase of the CTn4 locus, C. difficile 630) (Clostridioides difficile strain 630). Nature of the test: SEC.
Test [4] shares this target. Nature of the test: negative-stain transmission electron microscopy.

One may read the stoichiometry N as a count of units in the complex or per binding partner.

In test [1], “MBP-tagged delVirB4_CTn4 (NH2-terminally truncated VirB4-like ATPase of the CTn4 locus, C. difficile 630) (domain or fragment)” came in with an oligomerization rate of 100% and a stoichiometry N of more than 6 monomers. Moreover, the stoichiometry N in test [2] was 6 to 7.
In test [3], “MBP-tagged delVirD4_CTn4 (NH2-terminally truncated VirD4-like ATPase of the CTn4 locus, C. difficile 630) (domain or fragment)” returned an oligomerization rate of 100% and a stoichiometry N of more than 6 monomers. In test [4], this substance gave a stoichiometry N of 6 to 7.
